This is an account of results in patent US20110150903A1 (Sanofi, published 2011).

“And” between values parts separate entries of the source, which are not always exact repeats. Equal entries are not always repeated.

One assay has as its target T1, hFGFR4_D1:Fc (SABVA4794) (human).
T1 construct: FGF-R4_HUMAN positions 1 to 179 fused to the Fc domain of human IgG1; also called fGFGR4_D1::Fc
As to the kind of experiment: ELISA on coated subdomain-Fc construct. Background: In an ELISA, binding on a coated surface is turned into a signal by an enzyme label.

Another assay deals with T2, hFGFR4_D2:Fc (SABVA4796) (human).
T2 construct: FGF-R4_HUMAN positions 1 to 32 plus 145 to 242 fused to the Fc domain of human IgG1; also called fGFGR4_D2::Fc
The assay can be described thus: ELISA on coated subdomain-Fc construct.

The target in another assay is T3, hFGFR4_D3:Fc (SABVA4799) (human).
T3 construct: also called fGFGR4_D3::Fc
The assay can be described thus: ELISA on coated subdomain-Fc construct.

The target of assay [1] is T4, human FGF-R4 recombinant extracellular domain protein, construct not named (human, UniProt P22455 22-369).
T4 construct: extracellular domain; also called the FGF-R4 protein; complete extracellular domain of human FGF-R4
The assay can be described thus: SPR (BIAcore), antibody captured by anti-Fc antibody on the chip. A general note: Surface plasmon resonance follows binding to a sensor surface in real time, without labels.

Assay [2] has as its target T5, human FGF-R4 expressed on cells (human, UniProt P22455 22-802).
T5 construct: whole, on cells; Functional assays: endogenous receptor of human Hep3b and HUVEC cells; also called human FGF-R4s expressed at the surface of transfected 300-19 cells; FGF-R4 of Hep3b and HUVEC cells
As to the kind of experiment: displacement of FGF2-AF488 (10 ng/ml) from human FGF-R4 on 300-19 cells.

Assay [3] concerns the target T6, rat FGF-R4 expressed on transfected 300-19 cells (rat, UniProt Q498D6 17-800).
T6 construct: also called rFGFR4
As to the kind of experiment: displacement of labelled rat FGF2 from rat FGF-R4 on 300-19 cells; rat FGF-R4, rat FGF2; in ng/ml.
Method: (§1) Firstly, competition binding experiments were carried out.
(§2) The dissociation experiments were carried out using the 300-19 lines transfected with mouse or rat FGF-R4 receptors.

Another assay addresses T7, hFGFR1-Fc (human).
T7 construct: Extracellular domain of human FGF-R1 IIIc fused C-terminally to the Fc domain of human IgG1
As to the kind of experiment: ELISA on plates coated with the 4 human FGF receptors, antibody concentration not given.

The target in another assay is T8, hFGFR2-Fc (human).
T8 construct: Extracellular domain of human FGF-R2 IIIc fused C-terminally to the Fc domain of human IgG1
The description is as above.

For the next assay, the target named is T9, hFGFR3-Fc (human, UniProt P22607 23-375).
T9 construct: extracellular domain; Bought from R&D Systems; not shown: Fc domain of human IgG1
T9 sequence (looked up): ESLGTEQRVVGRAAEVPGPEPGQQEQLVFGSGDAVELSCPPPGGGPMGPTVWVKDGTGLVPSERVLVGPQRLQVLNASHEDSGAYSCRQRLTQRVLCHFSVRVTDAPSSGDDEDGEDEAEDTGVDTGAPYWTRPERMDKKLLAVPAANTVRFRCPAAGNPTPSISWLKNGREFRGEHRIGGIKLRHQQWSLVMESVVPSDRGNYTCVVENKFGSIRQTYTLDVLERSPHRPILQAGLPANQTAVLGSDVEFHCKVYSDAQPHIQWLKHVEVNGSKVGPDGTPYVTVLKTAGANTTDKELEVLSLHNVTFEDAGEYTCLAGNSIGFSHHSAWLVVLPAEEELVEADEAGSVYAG
Described as above.

Assay [4] deals with T10, mouse FGF-R4 expressed on transfected 300-19 cells (mouse, UniProt Q03142 17-799).
T10 construct: whole, on cells; also called murine FGF-R4
As to the kind of experiment: displacement of labelled murine FGF2 from mouse FGF-R4 on 300-19 cells; mouse FGF-R4, murine FGF2; in ng/ml.
Method: as §1, §2

From the text for hFGFR4_D1:Fc (SABVA4794): (§3) The capture antigen was bound to Immulon-4 enzyme-linked plates (VWR Scientific Inc. Swedesboro, N.J.).
From the text for hFGFR4_D2:Fc (SABVA4796): as §3
From the text for hFGFR4_D3:Fc (SABVA4799): as §3

B1: anti-FGFR4 antagonist monoclonal antibody 40-12 (antibody, mouse IgG1, kappa, V domains shown)
VH: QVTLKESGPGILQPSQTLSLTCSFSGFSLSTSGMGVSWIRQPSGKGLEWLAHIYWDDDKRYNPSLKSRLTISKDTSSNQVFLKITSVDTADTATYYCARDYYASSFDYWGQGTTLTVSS
VL: DIVLTQSPATLSVTPGDRVSLSCRASQSISNYLHWYQQKSHESPRLLIKYASQSISGIPSRFSGSGSGTDFILSFNSVETEDFGMYFCQQSNSWPFTFGSGTKLEIKR
notes: Purified on protein G; also called clone 40-12; anti-FGFR4 40-12
With B1, the “Signal (O.D., 450 nm)” value was found to be 0.185 O.D. 450 nm with hFGFR4_D1:Fc (SABVA4794), 3 O.D. 450 nm with hFGFR4_D2:Fc (SABVA4796) and 0.105 O.D. 450 nm with hFGFR4_D3:Fc (SABVA4799). Moreover, the Kd in assay [1] stood at 6.5 nM. Moreover, the koff in [1] was 0.00126 s⁻¹. The kon in [1] is 194000 M⁻¹ s⁻¹. Moreover, the 50% inhibitory concentration (IC50) in assay [2] was 3.5 µg/mL and 23 nM; in assay [3] it was 3.94 µg/mL; in assay [4], 4.11 µg/mL. The binding result in the assay with hFGFR1-Fc, with hFGFR2-Fc and with hFGFR3-Fc was “no binding” each time.

The Kd is the concentration at which binding is half-saturated. As a reminder, the koff is a measure of how fast the partners let go of each other. As usually defined, the kon is the second-order rate constant of association. Broadly, the IC50 is the midpoint of a concentration-inhibition curve. A high value points to weaker potency.
